Reference: patent US20240115722A1 (RUTGERS THE STATE UNIVERSITY OF NEW JERSEY, published 2024)

Key:
[1] = molecular target: T1, recombinant human EphA5 (rhEphA5) antigen (human, UniProt P54756 25-573); assay: SPR multi-cycle kinetics (Biacore T200), purified IgG captured on anti-human IgG CM5 chip, recombinant EphA5 as analyte, 1:1 fit
T1 construct: also called human EphA5 (R and D systems, Cat. No. 3036-A5); recombinant EphA5
Method: HBS-P+(GE Healthcare, Uppsala, Sweden), supplemented with 1% BSA w/v (Sigma, Dorset, UK) was used as running buffer as well as for ligand and analyte dilutions. Purified lead antibodies were diluted to 0.5 μg/mL in running buffer and at the start of each cycle, loaded onto Fc2, Fc3 and Fc4 of an anti-human IgG CM5 sensor chip (GE Healthcare, Little Chalfont, UK). […] The surface was then allowed to stabilize.
Multi-cycle kinetic data was obtained using recombinant EphA5 as the analytes injected at a flow rate of 30 μl/min to minimize any potential mass transfer effects. […] For each concentration, the association phases were monitored for 210 seconds and the dissociation phase was measured for 900 seconds. Regeneration of the sensor chip surface was conducted between cycles using two injections of 3 M MgCl2. Multiple repeats of a blank and of EphA5 were programmed into the kinetic run in order to check the stability of both the surface and analyte over the kinetic cycles.
The signal from the reference channel Fc1 (no IgG captured) was subtracted from that of Fc2, Fc3 and Fc4 to correct for bulk effect and differences in non-specific binding to a reference surface. The signal from each IgG blank run (IgG captured but no antigen) was subtracted to correct for differences in surface stability. The double referenced sensorgrams were fitted with the Langmuir (1:1) binding model where the closeness of fit of the data to the model is evaluated using the Chi square value which describes the deviation between the experimental and fitted (observed and expected) curves. The fitting algorithm seeks to minimize the Chi square value.

[2] = molecular target: T1, recombinant human EphA5 (rhEphA5) …; assay: SPR single-cycle kinetics (Biacore T200), IgG from HEK supernatant captured on anti-human IgG CM5 chip, rhEphA5 as analyte, 1:1 fit; set-up: Relative KD: reference not given here
Method: Kinetic analysis was carried out on a Biacore T200. Each antibody was captured on a CM5 chip coupled with an anti-human IgG using standard amine chemistry before increasing concentrations of antigen were injected and a single off-rate was determined.
Kinetic experiments were performed at 25° C. on a Biacore T200 running Biacore T200 Control software V2.0.1 and Evaluation software V3.0 (Cytiva, Uppsala, Sweden).
HBS-P+ (Cytiva, Uppsala, Sweden), supplemented with 1% BSA (Sigma, Dorset, UK) was used as running buffer as well as for ligand and analyte dilutions. Supernatants containing IgG were diluted in running buffer to 1 μg/mL. At the start of each cycle, antibodies were loaded onto Fc2, Fc3 and Fc4 of an anti-human IgG CM5 sensor chip (Cytiva, Little Chalfont, UK). Ig were captured at a flow rate of […] to give an immobilization level (RL) of ˜60 RU. The surface was then allowed to stabilize.

[3] = molecular target: T2, human EPH receptor A5 (EphA5) expressed on cells (human, UniProt P54756 25-1037); assay: flow cytometry on H460 (EphA5+) cells, starting assay concentration 10 µg/mL
T2 construct: Cell line (H460 stably expressing EphA5; HEK-293T transfected with EPHA5 clone or wild-type construct; lung cancer lines with endogenous or variable expression); also called cell-surface EphA5; wild-type target protein
Method: Samples were prepared at a starting concentration of 10 μg/ml in FACS buffer and underwent a four-fold seven point serial dilution for testing with H460 cells and a three-fold three point serial dilution for the H226 cells. Cell pellets were resuspended in 100 μl of the serially diluted samples and incubated at 4° C. for 30 minutes. After the incubation, cells were pelleted, washed twice with 100 μl of FACS buffer and resuspended in either Alexa Fluor 647 anti-mouse or anti-human (Thermo Fisher) diluted to 5 μg/ml in FACS buffer. After incubation at 4° C. for 30 minutes, cells were pelleted, washed twice with 100 μl of FACS buffer and resuspended in 200 μl per well 1×BD CellFix solution (BD Pharmingen, Berkshire, UK). Median fluorescence intensity (MFI) was measured using an Attune NxT Flow Cytometer (Thermo Fisher, Loughborough, UK) and 10,000 gated events were acquired per sample. For data analysis, live cell populations were gated based on the forward and side scatter dot plot allowing the Alexa Fluor 647 MFI values to be measured in the RL1 channel.

T2 sequence (P54756 25-1037 limits assumed): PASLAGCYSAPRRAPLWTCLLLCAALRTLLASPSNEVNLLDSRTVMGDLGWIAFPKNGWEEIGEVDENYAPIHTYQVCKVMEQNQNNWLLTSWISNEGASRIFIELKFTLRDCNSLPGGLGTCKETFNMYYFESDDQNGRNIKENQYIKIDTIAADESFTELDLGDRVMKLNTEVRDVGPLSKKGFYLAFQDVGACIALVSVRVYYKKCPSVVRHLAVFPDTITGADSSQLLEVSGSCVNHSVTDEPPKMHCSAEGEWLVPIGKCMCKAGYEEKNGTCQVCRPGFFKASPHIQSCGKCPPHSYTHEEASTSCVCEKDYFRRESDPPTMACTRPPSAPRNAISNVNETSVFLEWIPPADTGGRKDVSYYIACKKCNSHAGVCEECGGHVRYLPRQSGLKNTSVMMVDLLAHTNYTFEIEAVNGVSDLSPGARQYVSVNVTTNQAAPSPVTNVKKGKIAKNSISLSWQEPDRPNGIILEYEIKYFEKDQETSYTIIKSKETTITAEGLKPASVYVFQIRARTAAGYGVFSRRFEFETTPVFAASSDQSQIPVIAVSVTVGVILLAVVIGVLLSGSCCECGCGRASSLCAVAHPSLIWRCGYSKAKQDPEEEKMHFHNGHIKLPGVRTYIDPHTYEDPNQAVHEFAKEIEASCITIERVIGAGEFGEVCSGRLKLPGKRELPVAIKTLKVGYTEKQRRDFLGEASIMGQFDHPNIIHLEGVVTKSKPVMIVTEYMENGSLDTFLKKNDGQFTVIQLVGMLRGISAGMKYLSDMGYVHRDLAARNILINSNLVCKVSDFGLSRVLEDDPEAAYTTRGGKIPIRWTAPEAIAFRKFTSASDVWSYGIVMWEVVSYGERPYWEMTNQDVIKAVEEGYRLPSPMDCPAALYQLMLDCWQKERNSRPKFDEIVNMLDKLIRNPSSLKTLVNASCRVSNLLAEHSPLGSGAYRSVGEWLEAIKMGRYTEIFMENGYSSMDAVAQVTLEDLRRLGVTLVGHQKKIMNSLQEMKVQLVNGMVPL
T1 sequence (P54756 25-573 limits assumed): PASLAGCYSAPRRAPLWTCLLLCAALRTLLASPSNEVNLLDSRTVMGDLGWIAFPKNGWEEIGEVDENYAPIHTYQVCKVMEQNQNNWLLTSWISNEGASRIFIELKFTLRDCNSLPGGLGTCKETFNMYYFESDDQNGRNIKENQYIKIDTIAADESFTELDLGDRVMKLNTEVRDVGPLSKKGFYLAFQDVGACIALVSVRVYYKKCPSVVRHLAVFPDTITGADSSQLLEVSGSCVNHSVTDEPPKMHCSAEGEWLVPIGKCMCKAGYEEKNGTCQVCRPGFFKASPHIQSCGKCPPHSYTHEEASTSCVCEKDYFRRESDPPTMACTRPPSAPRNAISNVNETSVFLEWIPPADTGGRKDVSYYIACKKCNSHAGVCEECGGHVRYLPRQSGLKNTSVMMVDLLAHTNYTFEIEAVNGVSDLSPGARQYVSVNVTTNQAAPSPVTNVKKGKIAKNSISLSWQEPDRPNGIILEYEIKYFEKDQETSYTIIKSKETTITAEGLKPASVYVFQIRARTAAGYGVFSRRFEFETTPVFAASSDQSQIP

Kd [1] [nM] | Relative KD [1] | koff [1] [s⁻¹] | Kd [2] [nM] | Relative KD [2] | koff [2] [s⁻¹] | EC50 [3] [µg/mL] | Max. Binding (MFI) [3] [MFI] | Binder
1.08 | 0.69 | 0.00142 | 0.956 | 0.72 | 0.00128 | 0.018 | 36500 | VH3/VK4 humanized 11C12 antibody (antibody, human IgG1, kappa, Human IgG1/kappa; lead variant, tested as HEK supernatant and as protein purified from CHO; also called H3K4) heavy: not shown light: DIVMTQSPDSLAVSLGERATINCKSSQSVDYDGDSYMNWYQQKPGKAPKLLIYGASNLESGIPDRFSGSGSGTDFTLTISRLEPEDAASYYCQQSNEDPFTFGQGTKLEIKRTVAAPSVFIFPPSDEQLKSGTASVVCLLNNFYPREAKVQWKVDNALQSGNSQESVTEQDSKDSTYSLSSTLTLSKADYEKHKVYACEVTHQGLSSPVTKSFNRGEC
– | – | – | 6.52 | 4.9 | 0.341 | – | – | VH6/VK3 humanized 11C12 antibody (antibody, human IgG1, kappa, V domains shown, Human IgG1/kappa; tested as HEK293 EBNA supernatant; also called H6K3) VH: EVQLVESGGGLVQPGGSLKLSCAASGFTFSTFGIHWVRQAPGKGLEWVASISGASTTIYYADSVKGRFTISRDNSKNTLYLQMNSLRAEDTAVYYCARYGTSFPYGLDYWGQGTLVTVSS VL: DIVMTQSPDSLAVSLGERATINCKASQSVDYDGDSYMNWYQQKPGKAPKLLIYGASNLESGIPDRFSGSGSGTDFTLTISRLEPEDAAVYYCQQSNEDPFTFGQGTKLEIKR
– | – | – | 7.1 | 5.34 | 0.285 | – | – | VH6/VK5 humanized 11C12 antibody (antibody, human IgG1, kappa, V domains shown, Human IgG1/kappa; tested as HEK293 EBNA supernatant; also called H6K5) VH: EVQLVESGGGLVQPGGSLKLSCAASGFTFSTFGIHWVRQAPGKGLEWVASISGASTTIYYADSVKGRFTISRDNSKNTLYLQMNSLRAEDTAVYYCARYGTSFPYGLDYWGQGTLVTVSS VL: DIVMTQSPDSLAVSLGERATINCKSSQSVDYDGDSYMNWYQQKPGKAPKLLIYGASNLESGIPDRFSGSGSGTDFTLTISRLEPEDAAVYYCQQSNEDPFTFGQGTKLEIKR
– | – | – | 0.947 | 0.71 | 0.00127 | – | – | VH5/VK1 humanized 11C12 antibody (antibody, human IgG1, kappa, V domains shown, Human IgG1/kappa; tested as HEK293 EBNA supernatant; also called H5K1) VH: EVQLVESGGGLVQPGGSLKLSCAASGFTFSTFGIHWVRQAPGKGLEWVAYISGASTTIYYADSVKGRFTISRDNSKNTLYLQMNSLRAEDTAVYYCARYGTSFPYGLDYWGQGTLVTVSS VL: DIVMTQSPGSLAVSLGERATINCKASQSVDYDGDSYMNWYQQKPGKAPKLLIYGASNLESGIPDRFSGSGSGTDFTLTISRLEEEDAASYYCQQSNEDPFTFGQGTKLEIKR
– | – | – | 9.76 | 7.34 | 0.209 | – | – | VH6/VK4 humanized 11C12 antibody (antibody, human IgG1, kappa, V domains shown, Human IgG1/kappa; tested as HEK293 EBNA supernatant; also called H6K4) VH: EVQLVESGGGLVQPGGSLKLSCAASGFTFSTFGIHWVRQAPGKGLEWVASISGASTTIYYADSVKGRFTISRDNSKNTLYLQMNSLRAEDTAVYYCARYGTSFPYGLDYWGQGTLVTVSS VL: DIVMTQSPDSLAVSLGERATINCKSSQSVDYDGDSYMNWYQQKPGKAPKLLIYGASNLESGIPDRFSGSGSGTDFTLTISRLEPEDAASYYCQQSNEDPFTFGQGTKLEIKR
0.934 | 0.6 | 0.00125 | 0.892 | 0.67 | 0.00123 | 0.017 | 36900 | VH5/VK2 humanized 11C12 antibody (antibody, human IgG1, kappa, V domains shown, Human IgG1/kappa; lead variant, tested as HEK supernatant and as protein purified from CHO; also called H5K2) VH: EVQLVESGGGLVQPGGSLKLSCAASGFTFSTFGIHWVRQAPGKGLEWVAYISGASTTIYYADSVKGRFTISRDNSKNTLYLQMNSLRAEDTAVYYCARYGTSFPYGLDYWGQGTLVTVSS VL: DIVMTQSPDSLAVSLGERATINCKASQSVDYDGDSYMNWYQQKPGKAPKLLIYGASNLESGIPDRFSGSGSGTDFTLTISRLEPEDAASYYCQQSNEDPFTFGQGTKLEIKR
– | – | – | 9.49 | 7.14 | 0.165 | – | – | VH6/VK2 humanized 11C12 antibody (antibody, human IgG1, kappa, V domains shown, Human IgG1/kappa; tested as HEK293 EBNA supernatant; also called H6K2) VH: EVQLVESGGGLVQPGGSLKLSCAASGFTFSTFGIHWVRQAPGKGLEWVASISGASTTIYYADSVKGRFTISRDNSKNTLYLQMNSLRAEDTAVYYCARYGTSFPYGLDYWGQGTLVTVSS VL: DIVMTQSPDSLAVSLGERATINCKASQSVDYDGDSYMNWYQQKPGKAPKLLIYGASNLESGIPDRFSGSGSGTDFTLTISRLEPEDAASYYCQQSNEDPFTFGQGTKLEIKR
– | – | – | 1.03 | 0.77 | 0.0014 | – | – | VH5/VK5 humanized 11C12 antibody (antibody, human IgG1, kappa, V domains shown, Human IgG1/kappa; tested as HEK293 EBNA supernatant; also called H5K5) VH: EVQLVESGGGLVQPGGSLKLSCAASGFTFSTFGIHWVRQAPGKGLEWVAYISGASTTIYYADSVKGRFTISRDNSKNTLYLQMNSLRAEDTAVYYCARYGTSFPYGLDYWGQGTLVTVSS VL: DIVMTQSPDSLAVSLGERATINCKSSQSVDYDGDSYMNWYQQKPGKAPKLLIYGASNLESGIPDRFSGSGSGTDFTLTISRLEPEDAAVYYCQQSNEDPFTFGQGTKLEIKR
1.04 | 0.67 | 0.00128 | 1.04 | 0.78 | 0.00141 | 0.018 | 35900 | VH5/VK4 humanized 11C12 antibody (antibody, human IgG1, kappa, V domains shown, Human IgG1/kappa; lead variant, tested as HEK supernatant and as protein purified from CHO; also called H5K4) VH: EVQLVESGGGLVQPGGSLKLSCAASGFTFSTFGIHWVRQAPGKGLEWVAYISGASTTIYYADSVKGRFTISRDNSKNTLYLQMNSLRAEDTAVYYCARYGTSFPYGLDYWGQGTLVTVSS VL: DIVMTQSPDSLAVSLGERATINCKSSQSVDYDGDSYMNWYQQKPGKAPKLLIYGASNLESGIPDRFSGSGSGTDFTLTISRLEPEDAASYYCQQSNEDPFTFGQGTKLEIKR
– | – | – | 10 | 7.52 | 0.165 | – | – | VH6/VK1 humanized 11C12 antibody (antibody, human IgG1, kappa, V domains shown, Human IgG1/kappa; tested as HEK293 EBNA supernatant; also called H6K1) VH: EVQLVESGGGLVQPGGSLKLSCAASGFTFSTFGIHWVRQAPGKGLEWVASISGASTTIYYADSVKGRFTISRDNSKNTLYLQMNSLRAEDTAVYYCARYGTSFPYGLDYWGQGTLVTVSS VL: DIVMTQSPGSLAVSLGERATINCKASQSVDYDGDSYMNWYQQKPGKAPKLLIYGASNLESGIPDRFSGSGSGTDFTLTISRLEEEDAASYYCQQSNEDPFTFGQGTKLEIKR
1.04 | 0.67 | 0.00132 | 1.05 | 0.79 | 0.0014 | 0.017 | 37500 | VH4/VK4 humanized 11C12 antibody (antibody, human IgG1, kappa, V domains shown, Human IgG1/kappa; lead variant, tested as HEK supernatant and as protein purified from CHO; also called H4K4) VH: EVQLVESGGGLVQPGGSLKLSCAASGFTFSTFGIHWVRQAPGKGLEWVAYISGASTTIYYADTVKGRFTISRDNSKNTLYLQMNSLRAEDTAVYYCARYGTSFPYGLDYWGQGTLVTVSS VL: DIVMTQSPDSLAVSLGERATINCKSSQSVDYDGDSYMNWYQQKPGKAPKLLIYGASNLESGIPDRFSGSGSGTDFTLTISRLEPEDAASYYCQQSNEDPFTFGQGTKLEIKR
– | – | – | 1.04 | 0.78 | 0.00127 | – | – | VH1/VK0 (antibody, human IgG1, kappa, V domains shown, tested as HEK supernatant; also called control antibody (humanized VH1 heavy chain with chimeric light chain)) VH: EVTLVESGGGLVQPGGSRKLSCAASGFTFSTFGIHWVRQAPGKGLEWVAYISGASTTIYYADTVKGRFTISRDNSKNTLYLQMNSLRSEDTAMYYCARYGTSFPYGLDYWGQGTSVTVSS VL: DIVMTQSPGSLAVSLGQRATISCKASQSVDYDGDSYMNWYQQKPGQPPKLLIYGASNLESGIPARFSGSGSGTDFTLNIHPVEEEDAASYYCQQSNEDPFTFGSGTKLEIKR
